The supplement of paper PMC11246515
± gives the standard deviation of the averaged measurements.

Assay: total protein half-life in vivo (active degradation + dilution); higher = more stable protein
[1] = E. coli NCM3722 delta-clpP delta-lon delta-hslV, growth: N-lim chemostat, doubling time 6 h
[2] = E. coli NCM3722 delta-clpP, growth: N-lim chemostat, doubling time 6 h
[3] = E. coli NCM3722 delta-lon, growth: N-lim chemostat, doubling time 6 h
[4] = E. coli NCM3722 delta-smpB, growth: N-lim chemostat, doubling time 6 h
[5] = wild type E. coli NCM3722, growth: C-lim chemostat, doubling time 3 h
[6] = wild type E. coli NCM3722, growth: C-lim chemostat, doubling time 6 h
[7] = wild type E. coli NCM3722, growth: C-lim chemostat, doubling time 12 h
[8] = E. coli NCM3722 delta-hslV, growth: N-lim chemostat, doubling time 6 h
[9] = wild type E. coli NCM3722, growth: N-lim chemostat, doubling time 6 h
[10] = wild type E. coli NCM3722, growth: N-lim chemostat, doubling time 12 h
[11] = wild type E. coli NCM3722, growth: P-lim chemostat, doubling time 12 h
[12] = wild type E. coli NCM3722, growth: P-lim chemostat, doubling time 6 h

Sequence | total protein half-life in vivo [1] | total protein half-life in vivo [2] | total protein half-life in vivo [3] | total protein half-life in vivo [4] | total protein half-life in vivo [5] | total protein half-life in vivo [6] | total protein half-life in vivo [7] | total protein half-life in vivo [8] | total protein half-life in vivo [9] | total protein half-life in vivo [10] | total protein half-life in vivo [11] | total protein half-life in vivo [12]
MARLFTLSESKYYLMALDAGTGSIRAVIFDLEGNQIAVGQAEWRHLAVPDVPGSMEFDLNKNWQLACECMRQALHNAGIAPEYIAAVSACSMREGIVLYNNEGAPIWACANVDARAAREVSELKELHNNTFENEVYRATGQTLALSAIPRLLWLAHHRSDIYRQASTITMISDWLAYMLSGELAVDPSNAGTTGLLDLTTRDWKPALLDMAGLRADILSPVKETGTLLGVVSSQAAELCGLKAGTPVVVGGGDVQLGCLGLGVVRPAQTAVLGGTFWQQVVNLAAPVTDPEMNVRVNPHVIPGMVQAESISFFTGLTMRWFRDAFCAEEKLIAERLGIDTYTLLEEMASRVPPGSWGVMPIFSDRMRFKTWYHAAPSFINLSIDPDKCNKATLFRALEENAAIVSACNLQQIADFSNIHPSSLVFAGGGSKGKLWSQILADVSGLPVNIPVVKEATALGCAIAAGVGAGIFSSMAETGERLVRWERTHTPDPEKHELYQDSRDKWQAVYQDQLGLVDHGLTTSLWKAPGL | 4.78 ± 0.065 h | 1.36 h | 2.49 h | 1.27 h | 1.55 ± 0.35 h | 2.83 ± 0.42 h | 2.92 ± 0.031 h |  |  |  |  | 
MARSKTAQPKHSLRKIAVVVATAVSGMSVYAQAAVEPKEDTITVTAAPAPQESAWGPAATIAARQSATGTKTDTPIQKVPQSISVVTAEEMALHQPKSVKEALSYTPGVSVGTRGASNTYDHLIIRGFAAEGQSQNNYLNGLKLQGNFYNDAVIDPYMLERAEIMRGPVSVLYGKSSPGGLLNMVSKRPTTEPLKEVQFKAGTDSLFQTGFDFSDSLDDDGVYSYRLTGLARSANAQQKGSEEQRYAIAPAFTWRPDDKTNFTFLSYFQNEPETGYYGWLPKEGTVEPLPNGKRLPTDFNEGAKNNTYSRNEKMVGYSFDHEFNDTFTVRQNLRFAENKTSQNSVYGYGVCSDPANAYSKQCAALAPADKGHYLARKYVVDDEKLQNFSVDTQLQSKFATGDIDHTLLTGVDFMRMRNDINAWFGYDDSVPLLNLYNPVNTDFDFNAKDPANSGPYRILNKQKQTGVYVQDQAQWDKVLVTLGGRYDWADQESLNRVAGTTDKRDDKQFTWRGGVNYLFDNGVTPYFSYSESFEPSSQVGKDGNIFAPSKGKQYEVGVKYVPEDRPIVVTGAVYNLTKTNNLMADPEGSFFSVEGGEIRARGVEIEAKAALSASVNVVGSYTYTDAEYTTDTTYKGNTPAQVPKHMASLWADYTFFDGPLSGLTLGTGGRYTGSSYGDPANSFKVGSYTVVDALVRYDLARVGMAGSNVALHVNNLFDREYVASCFNTYGCFWGAERQVVATATFRF | 6.92 ± 0.69 h | 6.41 ± 0.62 h | 6.11 ± 0.76 h |  | 3.36 ± 0.23 h | 6.64 ± 0.37 h | 14.3 ± 1.2 h | 6.62 ± 0.65 h | 6.14 ± 0.072 h | 11.6 ± 6.1 h | 13 ± 0.45 h | 
MASGDLVRYVITVMLHEDTLTEINELNNYLTRDGFLLTMTDDEGNIHELGTNTFGLISTQSEEEIRELVSGLTQSATGKDPEITITTWEEWNSNRK | 6.09 ± 0.66 h | 4.87 h |  | 4.44 ± 0.47 h | 3.04 ± 0.33 h | 4.88 ± 0.37 h | 10.1 h | 4.69 h | 6.08 h | 8.21 h | 11.1 ± 0.71 h | 4.86 ± 0.83 h
MASKFQNRLVGTIVLVALGVIVLPGLLDGQKKHYQDEFAAIPLVPKAGDRDEPDMMPAATQALPTQPPEGAAEEVRAGDAAAPSLDPATIAANNTEFEPEPAPVAPPKPKPVEPPKPKVEAPPAPKPEPKPVVEEKAAPTGKAYVVQLGALKNADKVNEIVGKLRGAGYRVYTSPSTPVQGKITRILVGPDASKDKLKGSLGELKQLSGLSGVVMGYTPN | 4.2 ± 0.25 h | 5.15 ± 2.6 h | 3.63 ± 0.44 h | 3.52 ± 0.13 h | 2.45 ± 0.036 h | 3.46 ± 0.32 h | 6.92 ± 0.23 h | 3.72 ± 0.18 h | 3.32 ± 0.14 h | 5.77 ± 1.7 h | 5.38 ± 0.026 h | 2.83 ± 0.55 h
MASVSISCPSCSATDGVVRNGKSTAGHQRYLCSHCRKTWQLQFTYTASQPGTHQKIIDMAMNGVGCRATARIMGVGLNTILRHLKNSGRSR [P0CF07] | 2.96 h |  |  |  |  |  |  |  |  |  | 2.5 h | 
MATHERRVVFFDLDGTLHQQDMFGSFLRYLLRRQPLNALLVLPLLPIIAIALLIKGRAARWPMSLLLWGCTFGHSEARLQTLQADFVRWFRDNVTAFPLVQERLTTYLLSSDADIWLITGSPQPLVEAVYFDTPWLPRVNLIASQIQRGYGGWVLTMRCLGHEKVAQLERKIGTPLRLYSGYSDSNQDNPLLYFCQHRWRVTPRGELQQLE [P0AD42] | 3.86 ± 0.9 h | 2.84 h | 2.07 h | 2.7 ± 0.1 h | 2.27 h | 3.96 h | 9.2 ± 0.12 h | 2.383 ± 0.018 h | 2.62 ± 0.42 h | 4.48 ± 0.64 h | 3.39 h | 1.82 h
MATHFARGILTEGHLISVRLPSQCHQEARNIPPHRQSRFLASRGLLAELMFMLYGIGELPEIVTLPKGKPVFSDKNLPSFSISYAGNMVGVALTTEGECGLDMELQRATRGFHSPHAPDNHTFSSNESLWISKQNDPNEARAQLITLRRSVLKLTGDVLNDDPRDLQLLPIAGRLKCAHVNHVEALCDAEDVLVWSVAVTPTIEKLSVWELDGKHGWKSLPDIHSRANNPTSRMMRFAQLSTVKAFSPN [P0ADM8] |  | 4.2 ± 0.51 h | 2.271 ± 0.01 h | 2.5 ± 0.27 h |  | 3.36 ± 0.66 h | 6.92 ± 0.22 h | 3.24 ± 1.1 h | 2.12 ± 0.18 h | 3.63 ± 0.21 h | 5.24 ± 0.93 h | 3.22 ± 0.14 h
MATIHVDGKEYEVNGADNLLEACLSLGLDIPYFCWHPALGSVGACRQCAVKQYQNAEDTRGRLVMSCMTPASDGTFISIDDEEAKQFRESVVEWLMTNHPHDCPVCEEGGNCHLQDMTVMTGHSFRRYRFTKRTHRNQDLGPFISHEMNRCIACYRCVRYYKDYADGTDLGVYGAHDNVYFGRPEDGTLESEFSGNLVEICPTGVFTDKTHSERYNRKWDMQFAPSICQQCSIGCNISPGERYGELRRIENRYNGTVNHYFLCDRGRFGYGYVNLKDRPRQPVQRRGDDFITLNAEQAMQGAADILRQSKKVIGIGSPRASVESNFALRELVGEENFYTGIAHGEQERLQLALKVLREGGIYTPALREIESYDAVLVLGEDVTQTGARVALAVRQAVKGKAREMAAAQKVADWQIAAILNIGQRAKHPLFVTNVDDTRLDDIAAWTYRAPVEDQARLGFAIAHALDNSAPAVDGIEPELQSKIDVIVQALAGAKKPLIISGTNAGSLEVIQAAANVAKALKGRGADVGITMIARSVNSMGLGIMGGGSLEEALTELETGRADAVVVLENDLHRHASAIRVNAALAKAPLVMVVDHQRTAIMENAHLVLSAASFAESDGTVINNEGRAQRFFQVYDPAYYDSKTVMLESWRWLHSLHSTLLSREVDWTQLDHVIDAVVAKIPELAGIKDAAPDATFRIRGQKLAREPHRYSGRTAMRANISVHEPRQPQDIDTMFTFSMEGNNQPTAHRSQVPFAWAPGWNSPQAWNKFQDEVGGKLRFGDPGVRLFETSENGLDYFTSVPARFQPQDGKWRIAPYYHLFGSDELSQRAPVFQSRMPQPYIKLNPADAAKLGVNAGTRVSFSYDGNTVTLPVEIAEGLTAGQVGLPMGMSGIAPVLAGAHLEDLKEAQQ | 6.02 ± 0.15 h | 5.98 ± 0.38 h | 5.92 ± 0.37 h | 5.61 ± 0.29 h | 3.14 ± 0.12 h | 5.723 ± 0.011 h | 10.3 ± 0.23 h | 6.1 ± 0.34 h | 5.63 ± 0.15 h | 11 ± 0.17 h | 10.25 ± 0.082 h | 5.72 ± 0.076 h
MATKLQDGNTPCLAATPSEPRPTVLVFDSGVGGLSVYDEIRHLLPDLHYIYAFDNVAFPYGEKSEAFIVERVVAIVTAVQERYPLALAVVACNTASTVSLPALREKFDFPVVGVVPAIKPAARLTANGIVGLLATRGTVKRSYTHELIARFANECQIEMLGSAEMVELAEAKLHGEDVSLDALKRILRPWLRMKEPPDTVVLGCTHFPLLQEELLQVLPEGTRLVDSGAAIARRTAWLLEHEAPDAKSADANIAFCMAMTPGAEQLLPVLQRYGFETLEKLAVLG | 5.25 ± 0.28 h | 4.4 ± 0.08 h | 4.74 ± 0.2 h | 4.44 ± 0.14 h | 3.22 ± 0.32 h | 5.49 ± 0.17 h |  | 4.32 ± 0.48 h | 4.54 ± 0.11 h | 7.85 ± 0.034 h | 12.2 ± 0.2 h | 6.21 ± 0.3 h
